Reference: article PMC5380656 (The Journal of Allergy and Clinical Immunology, 2017)

Assays:
[1] = molecular target: T1, staphylococcal enterotoxin A (Staphylococcus aureus, strain , UniProt P0A0L2); assay: ELISA
T1 construct: source: bought: Toxin Technology

[2] = molecular target: biotin-labeled staphylococcal enterotoxin E (Staphylococcus aureus, strain , UniProt P12993, biotin (site not stated)); assay: SPR; Biacore T200; […]; 25°C; […]; conditions: both partners purified
[3] = molecular target: T2, staphylococcal enterotoxin D (Staphylococcus aureus, strain , UniProt P20723); assay: ELISA
T2 construct: source: bought: Toxin Technology

[4] = molecular target: T3, staphylococcal enterotoxin C1 (Staphylococcus aureus, strain , UniProt P01553); assay: ELISA; conditions: both partners purified
T3 construct: source: bought: Toxin Technology

[5] = molecular target: T4, staphylococcal enterotoxin E (Staphylococcus aureus, strain , UniProt P12993); assay: ELISA
T4 construct: source: bought: Toxin Technology

[6] = molecular target: biotin-labeled staphylococcal enterotoxin A (Staphylococcus aureus, strain , UniProt P0A0L2, biotin (site not stated)); assay: SPR; Biacore T200; […]; 25°C; […]; conditions: both partners purified

B1: anti-SEA antibody HPK-018_1B6, recombinant IgG1 (antibody, V domains shown)
VH: EVQLVESGGEVKKPGASVKVSCKTSGYTFSSYYMHWVRQAPGQGLEWMGVINPSGGSIKYAQKFQGRVTMTRDTSTTTIYMDLSSLRSDDTAVYYCAYWGADGFDIWGQGTMVTVSS
VL: QSVLTQPPSASGTPGQRVTISCSGSSSNIGSNSVNWYQQVPGTAPKLLTYGNNQRRSGVPDRFSGSKSGTSASLAISGLQSEDEADYSCAVWDDSLSAWVFGGGTKLTVL
notes: source: HEK 293T, transfected, culture supernatant
binding result ([1]; one partner purified): binds

B2: anti-SEE antibody HPK-016_203, recombinant IgG1 (antibody, V domains shown)
VH: EVQLVESGAEVKKPGESLKISCKGSGNTFTNYWIAWVRQRPGKGLEWMGIIYPGDSDTRYSLSFQGQVTISVDKSINTAYLQWSSLRASDTAIYFCVRHCSGGRCSSAPLDSWGQGTLVTVSS
VL: NFMLTQPPSVSESPGKTVTISCTRSSGSIGTYYVHWYQQRPGSAPTTLIYDDSHRPSGVPDRFSGSVDSSSNSASLIISGLKTEDEADYYCLSHDTTNFVFGGGTKLTVL
notes: also called 203 IgG1
binding result [2]: binds | binding result ([3]; both partners purified): no binding | binding result [4]: binds | binding result ([1]; both partners purified): no binding | binding result ([5]; one partner purified): binds

B3: anti-SEA antibody 1F3, recombinant IgG1 (antibody, V domains shown)
VH: QVQLVESGTDVKKPGSSVKVSCKTSGGTFGDHGITWVRQAPEKGLEYVGRIIPNPGTAYHAQKFQGRVTITADESTGTAYLELSRLSFDDTAVYYCARGMTGYVGAYDYWGQGTLVTVSS
VL: QSVLTQPPSASGTPGQRVSISCSGSSSNIGSNSVSWYQLLPGTAPKLLIYFSHQRPSGVPDRFSASKSGTSASLAISDLQPEDEADYYCASWDDRLNGPVFGGGTKLTVL
notes: also called 1F3 IgG1; HPK-016_1F3
binding result [6]: binds | binding result ([1]; both partners purified): binds | binding result ([5]; both partners purified): no binding

B4: anti-SED antibody HPK-014_1A4, recombinant IgG1 (antibody, V domains shown)
VH: EVQLLESGGGLVQPGGSLRLSCAASGFNFDSYAMSWVRQAPGKGLEWVSSISSSGGATYYADSVKGRSTISRDNSKNTVSLQMNSLRAEDTAVYYCAKKRRYDAVTGYLFDMWGQGTMVTVSS
VL: DIVMTQSPFSLAVSLGERATMNCKSSQSVLHSSNNENYLAWYQQKPGQPPKLLIYWASTRESGVPDRFSGSGSGTDFTLTISSLQAEDVAVYYCQQFYSPAPYTFGQGTKLEIK
notes: as for B1
binding result ([3]; one partner purified): binds

B5: anti-SEE antibody HPK-014_1G2, recombinant IgG1 (antibody, V domains shown)
VH: QVQLVESGGGVVPPGGSLRLSCATSGFKFNDYDMHWVRQAPGKGLEWVASIRYHGNKDYYADSVKGRFTISRDNSKNTLSLQMNSLRPEDTAIFYCARDRAQGIVAAAGTSFGYWGQGTLVTVSS
VL: SYELTQPPSVSVSPGQTARITCSADALPKQYVYWYQQKSGQAPVLVMYKDSERPSGIPERFSGSTSGSTVMLTISGVQEEDEAVYYCQSGDTSGFDPDVAFGGGTKLTVL
notes: also called 1G2 IgG1
binding result [2]: binds | binding result ([3]; both partners purified): no binding | binding result [4]: binds | binding result ([1]; both partners purified): no binding | binding result ([5]; one partner purified): binds

B6: anti-SEE antibody HPK-014_1G2, recombinant IgE (antibody, V domains shown)
VH: QVQLVESGGGVVPPGGSLRLSCATSGFKFNDYDMHWVRQAPGKGLEWVASIRYHGNKDYYADSVKGRFTISRDNSKNTLSLQMNSLRPEDTAIFYCARDRAQGIVAAAGTSFGYWGQGTLVTVSS
VL: SYELTQPPSVSVSPGQTARITCSADALPKQYVYWYQQKSGQAPVLVMYKDSERPSGIPERFSGSTSGSTVMLTISGVQEEDEAVYYCQSGDTSGFDPDVAFGGGTKLTVL
notes: also called 1G2 IgE; anti-SEE IgE 1G2
binding result ([5]; both partners purified): binds

B7: anti-SEE antibody HPK-014_1G2, Fab (Fab, V domains shown)
VH: QVQLVESGGGVVPPGGSLRLSCATSGFKFNDYDMHWVRQAPGKGLEWVASIRYHGNKDYYADSVKGRFTISRDNSKNTLSLQMNSLRPEDTAIFYCARDRAQGIVAAAGTSFGYWGQGTLVTVSS
VL: SYELTQPPSVSVSPGQTARITCSADALPKQYVYWYQQKSGQAPVLVMYKDSERPSGIPERFSGSTSGSTVMLTISGVQEEDEAVYYCQSGDTSGFDPDVAFGGGTKLTVL
notes: source: Expi293, purified (LambdaFabSelect agarose)
binding result ([5]; both partners purified): binds

B8: anti-SED antibody HPK-018_2D6, recombinant IgG1 (antibody, V domains shown)
VH: QVQLVQSGGGLVQPGRSLRLSCRASGFTFGEYAMSWVRQAPGKGVEWVSFIRSRTYGATTEYAASVKGRFTISRDDSESIVYLQMNSLKTEDTAVYYCTTYCSSTSCQIDYWGQGTLVTVSS
VL: QSALTQPPSASALLGASIKLTCTLSSEHSTYIIEWFQQRPGRSPQYIMDVKSDGSYTKGDGIPDRFMGSSSGADRYLTLSNLQSDDEAEYYCGESHTIDGQVGYVFGTGTKVTVL
notes: as for B1
binding result ([3]; one partner purified): binds
